Results on one molecule are retold here after PMC10382678, “The collagen ColQ binds to LRP4 and regulates the activation of the Muscle-Specific Kinase–LRP4 receptor complex by agrin at the neuromuscular junction” (The Journal of Biological Chemistry, 2023).

Data set [1] has as its target T1, purified recombinant mouse ectoLRP4 His-tag (R&D Systems) (mouse, UniProt Q8VI56 21-1725).
T1 construct: low-density lipoprotein receptor-related protein 4, mouse, ectodomain; also called purified ectoLRP4; source: bought: R&D Systems
The data set is described as follows: SPR; same ColQ-Flag surface; single-cycle kinetics with purified ectoLRP4-His at 296, 444, 666, 1000 and 1500 nM, 5 μl/min, 3 min association, 5 min dissociation, no regeneration; HBS-EP; 1:1 binding model with drifting baseline; n = 2. To be noted: one partner purified. A general note: Surface plasmon resonance follows binding to a sensor surface in real time, without labels.

Data set [2] concerns the molecule itself. As to the kind of experiment: co-sedimentation; extracts (0.8 M NaCl, 1% CHAPS) of HEK 293T cells cotransfected with ColQ-Flag and AChE, run on 5 to 20% sucrose gradients with 0.8 M NaCl, 10 mM EDTA, 0.2% Brij-97; fractions assayed for AChE activity; profile not shown.

T1 sequence (Q8VI56 21-1725): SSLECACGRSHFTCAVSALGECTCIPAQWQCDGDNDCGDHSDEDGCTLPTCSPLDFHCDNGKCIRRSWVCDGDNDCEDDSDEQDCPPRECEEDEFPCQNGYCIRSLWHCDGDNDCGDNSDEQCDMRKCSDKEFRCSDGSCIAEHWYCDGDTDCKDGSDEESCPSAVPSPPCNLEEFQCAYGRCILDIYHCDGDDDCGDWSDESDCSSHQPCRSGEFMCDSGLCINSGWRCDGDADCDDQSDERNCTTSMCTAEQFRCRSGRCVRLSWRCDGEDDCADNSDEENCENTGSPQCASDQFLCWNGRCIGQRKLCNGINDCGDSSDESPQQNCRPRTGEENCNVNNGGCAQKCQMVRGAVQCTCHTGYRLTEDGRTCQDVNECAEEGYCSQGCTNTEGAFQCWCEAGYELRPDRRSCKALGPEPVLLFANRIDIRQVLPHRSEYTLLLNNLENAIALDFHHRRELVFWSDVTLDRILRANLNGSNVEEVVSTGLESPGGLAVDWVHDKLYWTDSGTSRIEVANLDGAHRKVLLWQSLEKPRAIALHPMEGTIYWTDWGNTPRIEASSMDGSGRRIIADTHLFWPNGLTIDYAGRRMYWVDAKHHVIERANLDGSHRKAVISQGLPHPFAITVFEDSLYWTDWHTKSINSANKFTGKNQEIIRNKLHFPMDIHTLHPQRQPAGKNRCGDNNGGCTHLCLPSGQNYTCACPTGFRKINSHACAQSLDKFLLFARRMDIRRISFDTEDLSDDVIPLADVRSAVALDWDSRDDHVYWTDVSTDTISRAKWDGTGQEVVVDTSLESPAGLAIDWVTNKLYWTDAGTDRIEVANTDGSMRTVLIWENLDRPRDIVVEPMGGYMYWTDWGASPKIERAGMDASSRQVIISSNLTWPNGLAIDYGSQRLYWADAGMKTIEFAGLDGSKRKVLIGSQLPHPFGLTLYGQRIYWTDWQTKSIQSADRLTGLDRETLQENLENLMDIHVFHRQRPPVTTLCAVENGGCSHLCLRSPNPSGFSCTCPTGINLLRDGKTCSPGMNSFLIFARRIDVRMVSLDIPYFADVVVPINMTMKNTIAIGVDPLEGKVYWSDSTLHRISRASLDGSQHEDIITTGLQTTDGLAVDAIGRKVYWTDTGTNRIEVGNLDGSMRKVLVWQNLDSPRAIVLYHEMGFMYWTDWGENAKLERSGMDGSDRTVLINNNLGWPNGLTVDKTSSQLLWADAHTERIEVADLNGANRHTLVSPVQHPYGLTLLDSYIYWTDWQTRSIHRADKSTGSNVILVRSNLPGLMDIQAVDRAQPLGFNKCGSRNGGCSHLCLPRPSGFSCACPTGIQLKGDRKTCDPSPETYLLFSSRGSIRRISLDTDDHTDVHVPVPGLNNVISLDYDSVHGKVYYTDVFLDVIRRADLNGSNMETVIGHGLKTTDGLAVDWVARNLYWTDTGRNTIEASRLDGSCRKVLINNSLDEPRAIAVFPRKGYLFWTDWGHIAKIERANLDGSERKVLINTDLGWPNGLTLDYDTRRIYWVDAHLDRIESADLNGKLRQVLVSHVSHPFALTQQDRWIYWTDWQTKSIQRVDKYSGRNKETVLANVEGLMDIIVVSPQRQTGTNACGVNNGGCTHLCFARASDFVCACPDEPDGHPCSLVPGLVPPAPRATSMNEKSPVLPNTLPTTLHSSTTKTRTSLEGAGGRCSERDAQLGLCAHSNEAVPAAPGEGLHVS

B1: ColQ-Flag (rat collagen Q, ColQ1a, with a Flag epitope after amino acid 26) (natural protein, UniProt O35167 23-458, looked up)
chain: QPTFINSVLPISAALPGLDQKKRGNHKACCLLMPPPPPLFPPPFFRGSRSPLLSPDMKNLLELEASPSPCMQGSLGSPGPPGPQGPPGLPGKAGPKGEKGDLGRPGRKGRPGPPGVPGEPGPVGWPGPEGPRGEKGDVGMMGLPGSRGPMGSKGFPGSRGEKGSRGERGDLGPKGEKGFPGFPGMLGQKGEMGPKGESGIAGHRGPTGRPGKRGKQGQKGDSGIMGPPGKPGPSGQPGRQGPPGPPGPPSAGQLVMGLKGERGFPGPPGRCLCGPPANVNNPSYGDPMYGRGSPRVPAIFVVNNQEELEKLNTQNAIAFRRDQRSLYFKDSLGWLPIQLTPFYPVGLHHKAAWHLCGDGVLQPGEECDDGNPDVSDGCIDCHRAYCGDGYRHRGVEDCDGSDFGYLKCETYLPGSYGELRCTQYCSIDSTPCRYFT
notes: Never purified on its own, only immunocaptured from lysates; source: captured from the lysate on anti-Flag beads, wells or sensor chip; not shown: Flag, internal (after residue 26), kept
What is called Kd is the equilibrium constant for the complex coming apart. What is called koff is a measure of how fast the partners let go of each other. Usually kon stands for the second-order rate constant of association. As a reminder, the stoichiometry N is a count of units in the complex or per binding partner. As for B1, in data set [1], the Kd stood at 94 nM, the koff stood at 0.0091 s⁻¹ and the on-rate (kon) amounted to 96400 M⁻¹ s⁻¹. Moreover, in data set [2], the “stoichiometry N” value amounted to 3.
